# From publication PMC12133150
# Molecular target: TET2 (UniProt Q6N021)
# Experiment: co-IP of transfected HNF4α with TET2
# Details: reference: wild type; sites S313
substance,measurement,value
HNF4α (from UniProt P41235) S313A,binding against the reference,stronger
